Source: the supplement of paper PMC9170038

Test system: MS2 coat protein
Assay: apparent KD of MS2 coat protein; higher = weaker reporter binding
Conditions: Eterna round: R107
How it was run: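 On-chip transcription from Illumina sequencing clusters produced the designed RNA switches. These were titrated with SNAP-549-labelled MS2 coat protein (twofold steps, 0.7 or 1.5 nM to 3 µM) in 100 mM Tris-HCl pH 7.5, 80 mM KCl, 4 mM MgCl2, with or without constant ligand. The apparent KD given is the per-design median of normalised cluster binding-curve fits.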

[1] = input ligand: theophylline 20 uM
[2] = input ligand: theophylline 2 mM
[3] = input ligand: tryptophan 2.4 mM

| Sequence | apparent KD of MS2 coat protein (input ligand: arginine 13.2 mM) [nM] | apparent KD of MS2 coat protein [1] [nM] | apparent KD of MS2 coat protein [2] [nM] | apparent KD of MS2 coat protein (input ligand: none) [nM] | apparent KD of MS2 coat protein [3] [nM] |
| --- | --- | --- | --- | --- | --- |
| CCCAACAUGAGGAUCACCCAUGUUCCGGGUCGAGGACCGGUACGGCCGCCACUCGGUAUGAUGGGUGUGCAGCGUAUCUGCACCA [theeternabot_sameState_MS2_Trp_A_22] | 30.9 | 61.1 | 68.4 | – | – |
| CCCACAAGCACGGCCGCCACUAUAUUAAUUACUGUCCUAGAACAUGAGGAUCACCCAUGUUAAUGUAGGACCGGGUGCGGGCCCG [theeternabot_exclusion_MS2_Trp_B_7] | 9.21 | 11.5 | 9.46 | – | – |
| CCCAGUCAUAACAAAGCAAAUAUACUCGAAGGAGCGUCAUAGUAGGCAGGUAGGUCGCGAGACAUGAGGAUCACCCAUGUAGAGA [zrzmullin] | 20.1 | 33.2 | 39.2 | 31.8 | 35.1 |
| CCCAGUCAUAGCAGGGCAAAUAUACUCGAAGGAGCGUCAUAGUAGGCAGGUAGGUCGCGAGACAUGAGGAUCACCCAUGUAGAGA [cccmullin] | 33.6 | 67 | 44.2 | 52.3 | 44.8 |
| CCCAGUUAUAUCAAAGGAAUUAUACUCGAAGGAGCGUCAUAGUAGGCAGGUAGGUCGCGAGACAUGAGGAUCACCCAUGUAGAGA [pxpmullin] | 37.6 | 58.4 | 34.5 | 51.6 | 30.4 |
| CCGUUUUAUGGCGACAUAGGGCGGACUGAAGGAGCGGUGAAUAAGCCAGGUAGGUCGCAGAGAUCCACAUGAGGAUCACCCAUGU [!0.aD] | 322 | 62.2 | 63.5 | 52.6 | 77.5 |
| CCUAACCGAUCGGCCGCCACUGACCGGUACCUCUUCGAAACCCGCCACAUGAGGAUCACCCAUGUCAGGACCGGGAUUGCACAGG [Inxeus] | 14.4 | 23 | 17.8 | 17.2 | 38.1 |
| CCUAUCCAGUCGGCCGCCACUGAAAACAGUGGGUGAACAUGAGGAUCACCCAUGUAGGAUUUCCACAGGACCGGGACUGUAUAGG [Ex Tryptophan B 24] | 79.4 | 1300 | 1230 | 933 | 223 |
| CGAAUAUAGGCUACGUGUCAUUGAGGCGAUACCAGAUUAUGCCAGAUCCCUUGGCAGCGCCAAACAUGAGGAUCACCCAUGUUCA [theeternabot_exclusion_MS2_Theo_A_38] | 23.5 | 24.8 | – | – | 21.5 |
| CGAUAUGGGACGGCCGCCACUAUUAUGUAACAAAAUAAACAUGAGGAUCACCCAUGUACAUGGGAUAGGACCGGGUCCUAUAACG [#22 Same State - Tryptophan B] | 29.6 | 42.5 | 46.2 | – | – |
| CGCAACCAACAUGAGGAUCACCCAUGUGAAGGAGCGCCGAAGAAGGCAGGUAGGUCGCACAUGAAUAAAUCAUGUAAAAGGUUGC [MAT - Exclusion Arginine A - Mod of Eli - D19] | 17.7 | 64.5 | 71.2 | 51.4 | 40.9 |
| CGGCCCUCACCUGAGGAUCACCCAGGUGAUACCAGCCUGGAAACAGGCCCUUGGCAGCACCAGGUCAUCAAAGAUGACCAAGCCG [TheoAX 23 #SwitchBubble] | 9.35 | 15.2 | 128 | 10.5 | 10.9 |
| CGGGACAUGAGGAUCACCCAUGUACGAUCCCGAGGACCGGUACGGCCGCCACUCGCUAGCGUUGAGUCGCGACUUUCAUAACUAA [theeternabot_sameState_MS2_Trp_A_27] | 36.7 | 92.2 | 83.2 | – | – |
| CGGGUUAGGGCGGCCGCCACUGUGGCUACGGUACAUGAGGAUCACCCAUGUUUGUGGUUGAUCUACAGGACCGGGCCCUGACACG [Geusrean] | 440 | 865 | 2560 | 102 | 203 |
| CGUACAUGAGGAUCACCCAUGUAGAGUGAUACCAGUCUACCUAGUGACCCUUGGCAGCACAUCGAUGGCAUCGGUGAUGCCGUUU [Atveti] | 70.1 | 116 | – | – | 117 |
| CUACAUUUGUAGAAACCGGUCAACAAUAAUCGAGGACCGGUACGGCCGCCACUCGUAUAAUUUUAUACAUGAGGAUCACCCAUGU [Tryptophan A 3] | 13.7 | 16.5 | 16.5 | – | – |
| CUAGAUGGAAACGUCUGGACGCACAAGCGACGAGGACCGGUACGGCCGCCACUCGAAGAGUGGUGGACAUGAGGAUCACCCAUGU [Design 4 MOD] | 36.5 | 87.4 | 78 | – | – |
| CUAUAAUGAAAACAUUAUAGAGUGGGUGAACGAGGACCGGUACGGCCGCCACUCGGACAUGAGGAUCACCCAUGUCCAUGUGAAA [AstrosExyTryA#24] | 11.2 | 18.9 | 17.7 | 15.6 | 31.9 |
| CUCCUGGGAGCGGCCGCCACUGGAGGCCUUGCGCGACAUGAGGAUCACCCAUGUUGUCCCGGCCUCAGGACCGGGUUCGCGCGAG [Same State - Tryptophan B Attempt #1] | 6.5 | 10.2 | 9.71 | 8.09 | 8.67 |
| CUCUGAGUCCGAAAGGACUCAGAGGCGGAUACCAGCGAGGUCCAUCGCCCUUGGCAGCCGAACAUGAGGAUCACCCAUGUCGGUA [#1 Same State - Theophylline A Attempt #28 (HarryS)] | 9.74 | 12.1 | – | – | 11.2 |
| CUUAUAUAUAGAAGGAGCGACAUGAGGAUCACCCAUGUCUACCACGUCGAAAGACGCUCAUGUCAGGUAGGUCGCUAUAUAUAAG [Astros-Eli-mod3] | 42.5 | 138 | 172 | 152 | 120 |
| GACCGAUUAUAGCGCGAUUGUCUUGUGGAAGGAGCGCAGAGGGCUGCAGGUAGGUCGCCACAUGAGGAUCACCCAUGUCAGGAUA [Ananvediri] | 30.5 | 53.4 | 35.8 | 20.2 | 30.9 |
| GACCUUGCGGGCGCCCGCAAGGUUGCGGAUACCAGCGAGGUCCAUCGCCCUUGGCAGCCGAACAUGAGGAUCACCCAUGUCGGAC [Same State - Theophylline A Attempt #3 (HarryS)] | 10.3 | 18.2 | 15.8 | 11.4 | 11.2 |
| GAGACGUCGGGAAGGAGCGCAUCCAAACCACACAUGAGGAUCACCCAUGUAUAAAUAUGCAUGCAGGUAGGUCGCCCGGUGUCCA [Xegeisge] | 49.9 | 120 | 114 | 85.7 | 86.1 |
| GAGCUGAUGUAGAGAUUUUAUUUCUGAGAUACCAGUACAGAAAUGUACCCUUGGCAGCUCAGCUUUACAUGAGGAUCACCCAUGU [Ex Theophylline A 16] | 16.9 | 17.8 | – | – | 17.6 |
| GAGGACAUGAGGAUCACCCAUGUAAAUGAUACCAGUUGAGAGAGAGGCCCUUGGCAGCGUAAACAUGACAGCGAGCGAGAGUGCG [ss-theoA-0] | 16.3 | 19.2 | 15.3 | 13.1 | 14.6 |
| GAGGAUCAAGUAGAUACCAGCACAUGAGGAUCACCCAUGUAAUGGUGUCCCUCAAGAACGUGCCCUUGGCAGCUACUAUCAAAAU [Enarbeer] | 24.6 | 20.5 | – | – | 14.7 |
| GAUAGUUGAAGGGAUACCAGCCUGGACAUGAGGAUCACCCAUGUAGCGUGUUUGAAACUGGGCCCUUGGCAGCCCAUAUUGUGUA [Same State - Theophylline B / A] | 16.3 | 17.6 | – | – | 15.2 |
| GAUAUAACAAAAGUUGUAUCAGUGGGUGAACGAGGACCGGUACGGCCGCCACUCGGACAUGAGGAUCACCCAUGUCCAUGUGAAA [AstrosExyTryA#18] | 11.6 | 23.1 | 19.8 | 14.7 | 44.3 |
| GAUAUGGAAACAUGUCAGAUCCUUACCGGUCGAGGACCGGUACGGCCGCCACUCGCAAAUAUUGUACAUGAGGAUCACCCAUGUA [Ex Tryptophan A 17] | 13.2 | 15.4 | 13.6 | – | – |
